{
  "source": "patent US10287344B2",
  "about": "“Methods for reducing global chronic inflammation and the presence of melanoma” (Mayo Foundation for Medical Education and Research, priority 2008, dated 2019)",
  "molecules": {"B1": {"name": "IL-12: recombinant human IL-12 (R and D Systems) (protein, UniProt P29459 23-219; P29460 23-328, looked up)", "Interleukin-12 subunit alpha": "RNLPVATPDPGMFPCLHHSQNLLRAVSNMLQKARQTLEFYPCTSEEIDHEDITKDKTSTVEACLPLELTKNESCLNSRETSFITNGSCLASRKTSFMMALCLSSIYEDLKMYQVEFKTMNAKLLMDPKRQIFLDQNMLAVIDELMQALNFNSETVPQKSSLEEPDFYKTKIKLCILLHAFRIRAVTIDRVMSYLNAS", "Interleukin-12 subunit beta": "IWELKKDVYVVELDWYPDAPGEMVVLTCDTPEEDGITWTLDQSSEVLGSGKTLTIQVKEFGDAGQYTCHKGGEVLSHSLLLLHKKEDGIWSTDILKDQKEPKNKTFLRCEAKNYSGRFTCWWLTTISTDLTFSVKSSRGSSDPQGVTCGAATLSAERVRGDNKEYEYSVECQEDSACPAAEESLPIEVMVDAVHKLKYENYTSSFFIRDIIKPDPPKNLQLKPLKNSRQVEVSWEYPDTWSTPHSYFSLTFCVQVQGKSKREKKDRVFTDKTSATVICRKNASISVRAQDRYYSSSWSEWASVPCS"}},
  "system": "PBMC from healthy donors",
  "experiment": "VEGF mediated Th1/Th2 polarity: PBMC stimulated 3 days with CD3/CD28 expander beads, intracellular IFN-γ/IL-4 in CD4+ T-cells",
  "type": "cell-based, human",
  "conditions": "10 μg/mL IL-12 added to culture containing 16 pg/mL of VEGF",
  "experimental": "PBMC (A) isolated from healthy donors were stimulated with PMA and ionomycin in the presence of brefeldin-A, permeabolized, and intracellularly stained for human IFN-γ (FITC) and human IL-4 (PE). PBMC were exposed to increasing concentrations of VEGF ([…]) without/with IL-12. All cells were immunostained with PC5 anti-human CD4. Purified CD4+ T-cells (B) were negatively isolated using Miltenyi beads, cultured, and stained in the same fashion as PBMC (A).\nTo determine the effect of VEGF on Th1 and Th2 polarity, PBMC from healthy donors were stimulated for 3 days with CD3/CD28 expander beads (Invitrogen Oslo, Norway) with and without increasing doses of recombinant VEGF (1-16 pg/mL). Cells were also cultured with 10 μg/mL recombinant human IL-12 (R and D Systems, Minneapolis, Minn.) or 8 μg/mL of a monoclonal anti-human IL-12 (R and D Systems Minneapolis, Minn. clone #24910). […]\nIn addition, healthy donor PBMC were stimulated with CD3^+/CD28^+ expander micro-beads for 3 days with increasing concentrations (1 pg/mL-16 pg/mL) of recombinant VEGF and assessed intracellular cytokine production of IL-4 (Th2 cytokine) and IFN-γ (Th1 cytokine) in CD4^+ T-cells at the end of in vitro culture (FIG. 8a).",
  "data": [
    {"molecule": "B1", "values": [
      {"measurement": "shift in T-helper polarity in culture containing VEGF", "value": "prevented the shift in T-helper polarity from Th1 to Th2"}
    ]}
  ]
}
